In paper PMC8514465, “Functional and structural analysis of catabolite control protein C that responds to citrate” (Scientific Reports, 2021):

Experiments:
BaCcpC-FL = target: T1, BaCcpC-FL (Bacillus velezensis, UniProt A7Z428); assay: EMSA with biotin-labelled citB promoter DNA; type: binding; settings: 40 μM protein, 800 nM citB promoter DNA, 0-70 μM citrate, 30 min, room temperature; inducer
T1 construct: gene RBAM_013910; full length, residues 1-293; N-terminal His tag removed by TEV; E. coli BL21(DE3); dimer (~60 kDa) by SEC-MALS
T1 sequence (A7Z428 1-293): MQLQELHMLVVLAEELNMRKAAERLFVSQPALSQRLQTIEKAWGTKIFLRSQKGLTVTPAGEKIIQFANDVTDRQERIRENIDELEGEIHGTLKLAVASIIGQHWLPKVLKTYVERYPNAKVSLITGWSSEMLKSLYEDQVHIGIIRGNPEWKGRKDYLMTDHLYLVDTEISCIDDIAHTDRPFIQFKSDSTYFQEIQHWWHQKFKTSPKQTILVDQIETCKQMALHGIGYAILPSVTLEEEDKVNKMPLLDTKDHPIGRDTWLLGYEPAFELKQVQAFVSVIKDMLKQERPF

[1] = target: the molecule itself; assay: crystal structure; BaCcpC-IBD with citrate, 2.3 Å, space group C2, SAD phasing; crystals from PEG 6000, MPD, 0.1 M HEPES pH 7.5, 287 K
[2] = target: the molecule itself; assay: SEC-MALS; BaCcpC-FL not incubated with citrate; Superdex 200 Increase 10/300 GL, 295 K, 20 mM Tris pH 8.0, 150 mM NaCl, 2 mM 2-mercaptoethanol

## O=C(O)CC(O)(CC(=O)O)C(=O)O [citrate]
BaCcpC-FL
  EMSA with biotin-labelled citB promoter DNA: the presence of citrate slightly suppressed the binding of CcpC to citB-P

B1: C-terminal inducer-binding domain of Bacillus amyloliquefaciens CcpC (domain or fragment, UniProt A0A9P1JGF9 88-293, looked up)
chain: EIHGTLKLAVASIIGQHWLPKVLKTYVERYPNAKVSLITGWSSEMLKSLYEDQVHIGIIRGNPEWKGRKDYLMTDHLYLVDTEISCIDDIAHTDRPFIQFKSDSTYFQEIQHWWHQKFKTSPKQTILVDQIETCKQMALHGIGYAILPSVTLEEEDKVNKMPLLDAKDHPIGRDTWLLGYEPAFELKQVQAFVSVVKDMLKQERPF
modifications: selenomethionine-substituted (Se-Met protein used for SAD phasing)
notes: Crystallised in complex with citrate; five molecules in the asymmetric unit; Cloned into pPROEX-HTA; also called BaCcpC-IBD; CcpC-IBD; source: E. coli BL21 (DE3), purified (Ni-NTA, TEV cleavage, HiTrap-Q, Superdex 200) with 10 mM sodium citrate throughout; not shown: His6, N-terminal, cleaved
[1]
  binding result: binds

B2: full-length catabolite control protein C from Bacillus amyloliquefaciens (natural protein, UniProt A0A9P1JGF9 1-293, looked up)
chain: MQLQELHMLVVLAEELNMRKAAERLFVSQPALSQRLQTIEKAWGTKIFLRSQKGLTVTPAGEKIIQFANDVTDRQERIRENIDELEGEIHGTLKLAVASIIGQHWLPKVLKTYVERYPNAKVSLITGWSSEMLKSLYEDQVHIGIIRGNPEWKGRKDYLMTDHLYLVDTEISCIDDIAHTDRPFIQFKSDSTYFQEIQHWWHQKFKTSPKQTILVDQIETCKQMALHGIGYAILPSVTLEEEDKVNKMPLLDAKDHPIGRDTWLLGYEPAFELKQVQAFVSVVKDMLKQERPF
notes: Catabolite control protein C (CcpC), LysR-type transcriptional regulator, Bacillus amyloliquefaciens, residues 1-293, amplified from genomic DNA; PDB 7DMW holds only residues 88-293; also called BaCcpC-FL; BaCcpC; source: E. coli BL21 (DE3), purified (Ni-NTA, TEV cleavage, HiTrap-Q, Superdex 200); not shown: His6, N-terminal, cleaved
[2]
  stoichiometry N: 2
